# In PMC10653885 (mBio, 2023):
# T1: recombinant BB0323 (rBB0323) (Borrelia burgdorferi, UniProt O51302 1-377, labelled with NanoTemper Red-tris-NTA dye (only in the MST with BB0108))
# T1 sequence: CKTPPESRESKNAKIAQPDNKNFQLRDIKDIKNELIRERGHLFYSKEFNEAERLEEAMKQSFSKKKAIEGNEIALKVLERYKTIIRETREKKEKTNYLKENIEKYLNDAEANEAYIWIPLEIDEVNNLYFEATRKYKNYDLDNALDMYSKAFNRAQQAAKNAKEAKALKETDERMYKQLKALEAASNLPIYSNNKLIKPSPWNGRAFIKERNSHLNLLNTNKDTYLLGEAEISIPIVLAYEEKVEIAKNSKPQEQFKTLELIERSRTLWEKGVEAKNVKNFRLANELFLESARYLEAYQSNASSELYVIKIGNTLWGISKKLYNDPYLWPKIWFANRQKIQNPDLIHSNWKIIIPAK
# Tests used:
# [1] = biological target: recombinant BB0238 P65A (rP65A) (Borrelia burgdorferi B31); test: MST; 10 nM target protein labelled with Red-tris-NTA dye; 12-point 1:1 serial dilution of the ligand from 20 µM; PBS + 0.05% Tween-20, pH 7.4; 40% MST power, 10% LED power; TJump analysis, KD fit model of 1:1 stoichiometry; three biological replicates
# [2] = biological target: recombinant BB0238 Y37A (rY37A) (Borrelia burgdorferi B31); test: as above
# [3] = biological target: recombinant BB0238 P65A (rP65A) (Borrelia burgdorferi B31); test: SEC; analytical size exclusion chromatography on a calibrated Superose 12 column; apparent molecular masses from a standard curve
# [4] = biological target: recombinant BB0238 Y37A (rY37A) (Borrelia burgdorferi B31); test: as above
# [5] = biological target: recombinant BB0323 (rBB0323) (Borrelia burgdorferi) (UniProt O51302); test: MST; 10 nM target protein labelled with Red-tris-NTA dye; 12-point 1:1 serial dilution of the ligand from 20 µM; PBS + 0.05% Tween-20, pH 7.4; 40% MST power, 10% LED power; TJump analysis, KD fit model of 1:1 stoichiometry; three biological replicates
# [6] = biological target: recombinant wild-type BB0238 (rBB0238^WT) (Borrelia burgdorferi B31) (UniProt O51254); test: as above
# [7] = biological target: the molecule itself; test: SEC; analytical size exclusion chromatography on a calibrated Superose 12 column; apparent molecular masses from a standard curve
# [8] = biological target: T1, recombinant BB0323 (rBB0323); test: MST; 10 nM target protein labelled with Red-tris-NTA dye; 12-point 1:1 serial dilution of the ligand from 20 µM; PBS + 0.05% Tween-20, pH 7.4; 40% MST power, 10% LED power; TJump analysis, KD fit model of 1:1 stoichiometry; three biological replicates; details: both partners purified
molecule,measurement,setting,value
recombinant BB0323 (rBB0323) (from UniProt O51302 1-377) (natural protein),Kd,[1],702 nM
same,Kd,[2],658 nM
recombinant BB0238 P65A (rP65A) (natural protein),stoichiometry N,[3],2
recombinant BB0238 Y37A (rY37A) (natural protein),stoichiometry N,[4],2
recombinant BB0108 (enzyme),Kd,[5],2330 nM
same,Kd,[6],1890 nM
"recombinant wild-type BB0238 (rBB0238^WT) (natural protein, labelled with NanoTemper Red-tris-NTA dye (in MST only)) SSYIDKQKELAIFYYEVGQRYINVGKIKKGKLFQAKALKIYPDLKKGFDIKLAVKELDARIKDDNPKVVMLEDIKLEEIPGIVHEKIEINDFTNAPKIEYIAQRERSKNQDKIIKFQFGKFARALISRNFDLFDSVIADKVNVMGQFESKNDFISTLSSASSKADADELEYLSVDDYYDLKSLKISKSNDTSFAVNVNAKKNDVTKNFPFWKERQTLIFTTEDDNNWFLSSIN",stoichiometry N,[7],2
same,Kd,[8],1000 nM
